Results on 1 substance are retold here after US20120094935A1.

In assay [1] the target is N-terminally His-tagged form of human TNFα (residues 6-157, numbered as in PDB entry 1TNF), soluble TNFα trimer (human) (UniProt P01375). The experiment in a line: crystal structure, AREAIMOL with 1.4 Å probe.
Assay [2] shares this target. Nature of the assay: crystal structure, SC program in CCP4.

Chain of UniProt P01375 (P01375 other isoform, or with tags, fused parts or gaps limits assumed): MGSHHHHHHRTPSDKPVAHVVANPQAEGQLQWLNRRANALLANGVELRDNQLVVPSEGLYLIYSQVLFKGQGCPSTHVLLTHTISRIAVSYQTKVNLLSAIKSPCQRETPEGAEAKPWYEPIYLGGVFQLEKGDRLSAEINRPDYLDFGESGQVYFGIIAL

With “C-terminally His-tagged version of Yaba-like disease virus (YLDV) 2L lacking six C-terminal residues”, in assay [1], the buried surface area contributed by 2L was 1030 Å^2 and the total buried surface area at the 2L-TNFα interface is 2060 Å^2. In assay [2], the shape complementarity index SC was determined as 0.72.
